For the assay, the target named is T1, human angiopoietin-2 protein (human, UniProt O15123 19-496).
T1 construct: bought; also called Ang-2; Ang2
T1 sequence (looked up): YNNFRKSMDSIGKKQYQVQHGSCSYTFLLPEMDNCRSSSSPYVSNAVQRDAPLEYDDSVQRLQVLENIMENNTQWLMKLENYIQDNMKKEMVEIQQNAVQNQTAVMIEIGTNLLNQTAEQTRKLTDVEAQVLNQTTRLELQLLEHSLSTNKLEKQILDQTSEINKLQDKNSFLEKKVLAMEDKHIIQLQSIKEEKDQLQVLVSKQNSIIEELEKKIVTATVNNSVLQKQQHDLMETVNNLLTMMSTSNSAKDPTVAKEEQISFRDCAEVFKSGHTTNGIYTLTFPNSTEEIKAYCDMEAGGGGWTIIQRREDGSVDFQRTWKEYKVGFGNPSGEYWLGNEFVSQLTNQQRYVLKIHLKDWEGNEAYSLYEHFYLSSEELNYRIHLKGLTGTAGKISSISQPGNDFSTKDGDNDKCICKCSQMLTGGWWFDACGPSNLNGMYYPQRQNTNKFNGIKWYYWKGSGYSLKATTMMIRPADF
The assay can be described thus: competitive ELISA, coated Ang-2, 0.25 nM hTie-2-Fc; T form. Here is the method:
For competitive ELISA, human angiopoietin-2 protein and Tie-2-Fc (R&D Systems) were reconstituted without carrier protein. Mouse anti-human Tie-2 (Pharmingen) was used as the primary antibody and goat anti-mouse-IgG1-HRP (Pierce) was used as the secondary antibody. TMB substrate from Pierce was used.
High-binding half-well plates were coated with Ang-2 (100 ng/well) in 50 μl PBS and incubated at 4° C. overnight. Plates were washed three times with washing buffer (0.1% Tween 20, PBS, pH 7.4) and blocked with Superblock (Scytek), 100 μl/well at room temperature (“RT”) for 1 hour. After removing the blocking solution, 50 μl of an Ang-2 binding peptide compound (1 uM and 5× serial dilution) in the presence of 0.25 nM hTie-2-Fc using Superblock as diluent was added and incubated at RT for 2 hours. Plates were washed 3 times with washing buffer. Then, 50 ul of 0.1 ug/ml mouse anti-human Tie-2 diluted in Superblock added and incubated at RT for 1 hour. Following incubation, 50 ul of 1:5,000 dilution of goat anti-mouse IgG-HRP in Superblock was then added and incubated at RT for one hour. After washing 3 times, 50 μl (25 μl TMB+25 μl H₂O₂) was added, and incubated for 3-5 minutes. Color development was monitored and stopped with 25 μl of 2 M H₂SO₄. OD450 nm with a correction wavelength of 540 nm was measured.

Non-standard residues stand in square brackets, D forms with d. No end group written: not given here. Phe(4-NO2) = N[C@@H](Cc1ccc([N+](=O)[O-])cc1)C(=O)O; Phe(4-COOH) = N[C@@H](Cc1ccc(C(=O)O)cc1)C(=O)O; Bpa = N[C@@H](Cc1ccc(C(=O)c2ccccc2)cc1)C(=O)O; Hyp = O=C(O)[C@@H]1C[C@@H](O)CN1; 0P linker = not defined here; acyl = not defined here; ThA = thiazolylalanine

B1: Compound 26 (T): targeting peptide plus 0P linker (peptide)
peptide: XKYQPLDELDKTLYDQFMLQQG
modifications: not fully specified; 0P linker at the N-terminus (no acyl cap); C-term NH2 cap
Usually IC50 stands for the midpoint of a concentration-inhibition curve. A lower IC50 goes with higher potency. As for B1, the IC50 came out at 32.3 nM.

B2: Compound 33 (T): targeting peptide plus 0P linker (peptide)
peptide: QK(Ac)YQPLDEK(0P linker)DETLYDQFMLQQG
modifications: not fully specified (N-terminus, C-terminus); printed as Q(AcK)Y QPL DEK(0P) DET LYD QFM LQQ G; reading uncertain
Molecule B2 displayed an IC50 of 370 nM. This IC50 lies about 11-fold higher than the previous one.

B3: Compound 47 (T): targeting peptide plus 0P linker (peptide)
peptide: acyl-QK(Ac)YQ[Hyp]LDE[ThA]DK(0P linker)TL[Phe(4-COOH)]DQFMLQQG-NH2
modifications: reading uncertain; also: printed as Q(AcK)Y Q(HP)L DE(ThA) DK(0P)T L(CO2H)FD QFM LQQ G
For B3, the IC50 was determined as 43.3 nM.

B4: Compound 62 (T): targeting peptide plus 0P linker (peptide)
peptide: acyl-QK(Ac)YQPLDEK(Ac)DK(0P linker)TL[Phe(4-COOH)]DQFMLQQG-NH2
modifications: reading uncertain; also: printed as Q(AcK)Y QPL DE(AcK) DK(0P)T L(CF)D QFM LQQ G
B4 had an IC50 of 499 nM. This IC50 lies about 12-fold higher than the previous one.

B5: Compound 50 (T): targeting peptide plus 0P linker (peptide)
peptide: QXYQPLDELDXTLYDQFMLQQG
modifications: N-term DFB (difluorobenzoyl) cap; C-term NH2 cap; AcK at 2; 0P linker on K11
Regarding B5, the IC50 amounted to 33 nM.

B6: Compound 53 (T): targeting peptide plus 0P linker (peptide)
peptide: QXYQPLDELDXTLYDQFMLQQG
modifications: N-term acyl cap; C-term NH2 cap; (ClBnCarbamate)K at 2; 0P linker on K11
notes: only one IC50 printed, standing in column T
In the case of B6, the half-maximal inhibitory concentration (IC50) worked out at 147 nM.

B7: Compound 25 (T): targeting peptide plus 4P linker (peptide)
peptide: QNYQPLDELDXTLYDQFMLQQG
modifications: not fully specified; N-term acyl cap; C-term NH2 cap; 4P linker on K11
The molecule B7 came in with an IC50 of 300 nM.

B8: Compound 27 (T): targeting peptide plus 0P linker (peptide)
peptide: QKYQPLDELDXTLYDQFMLQQG
modifications: not fully specified; N-term acyl cap; C-term NH2 cap; 0P linker on K11
B8: the half-inhibitory concentration (IC50) worked out at 29 nM. This IC50 is about 10-fold lower than that of the molecule before.

B9: Compound 59 (T): targeting peptide plus 0P linker (peptide)
peptide: QRYQPLDELDXTLYDQFMLQQG
modifications: not fully specified; N-term acyl cap; C-term NH2 cap; 0P linker on K11
On to B9, for which the IC50 stood at 177 nM.

B10: Compound 60 (T): targeting peptide plus 0P linker (peptide)
peptide: QHYQPLDELDXTLYDQFMLQQG
modifications: not fully specified; N-term acyl cap; C-term NH2 cap; 0P linker on K11
Consider B10, for which the IC50 was determined as 214 nM. This IC50 and that of the molecule before are within 1.5-fold of each other.

B11: Compound 28 (T): targeting peptide plus 0P linker (peptide)
peptide: QNYQPLDELDXTLYDQFMLQQG
modifications: not fully specified; N-term acyl cap; C-term NH2 cap; 0P linker on K11
Take B11: the IC50 amounted to 175 nM.

B12: Compound 34 (T): targeting peptide plus 0P linker (peptide)
peptide: QXYQXLDELDXTLYDQFMLQQG
modifications: not fully specified; N-term acyl cap; C-term NH2 cap; AcK at 2; DHP at 5 (printed D(HP)); 0P linker on K11
Molecule B12 returned an IC50 of 224 nM.

B13: Compound 54 (T): targeting peptide plus 0P linker (peptide)
peptide: QXYQPLDELDXTLYDQFMLQQG
modifications: N-term acyl cap; C-term NH2 cap; AcK at 2; Dab at 11 carrying the 0P linker
B13 had an IC50 of 292 nM.

B14: Compound 61 (T): targeting peptide plus 0P linker (peptide)
peptide: QXYQPLDELDXTLYDQFMLQQG
modifications: not fully specified; N-term acyl cap; C-term NH2 cap; NicK (nicotinyl lysine) at 2; 0P linker on K11
notes: as for B6
Turning to B14, the IC50 stood at 83.9 nM.

B15: Compound 55 (T): targeting peptide plus 0P linker (peptide)
peptide: QXYQPLDELDXTLYDQFMLQQG
modifications: N-term acyl cap; C-term NH2 cap; AcK at 2; Dap at 11 carrying the 0P linker
For B15, the IC50 was 598 nM.

B16: Compound 29 (T): targeting peptide plus 0P linker (peptide)
peptide: QXYQPLDELDXTLYDQFMLQQG
modifications: not fully specified; N-term acyl cap; C-term NH2 cap; AcK at 2; 0P linker on K11
As to B16, the IC50 was found to be 83.3 nM.

B17: Compound 57 (T): targeting peptide plus 0P linker (peptide)
peptide: QNYQPLDELDK(0P linker)TL[Phe(4-COOH)]DQFMLQQG
modifications: not fully specified (N-terminus, C-terminus); printed as QNY QPL DEL DK(0P)T L(CF)D QFM LQQ G; reading uncertain
With B17, the IC50 turned out to be 110 nM.

B18: Compound 45 (T): targeting peptide plus 0P linker (peptide)
peptide: QK(Ac)YQ[Hyp]LDE[ThA]DK(0P linker)TL[Phe(4-NO2)]DQFMLQQG
modifications: not fully specified (N-terminus, C-terminus); printed as Q(AcK)Y Q(HP)L DE(ThA) DK(0P)T L(NO2F)D QFM LQQ G; reading uncertain
The molecule B18 had an IC50 of 24.7 nM.

B19: Compound 52 (T): targeting peptide plus 0P linker (peptide)
peptide: QXYQPLDELDXTLYDQFMLQQG
modifications: not fully specified; N-term amido 2-PEG cap; C-term NH2 cap; AcK at 2; 0P linker on K11
As to B19, the IC50 worked out at 134 nM.

B20: Compound 56 (T): targeting peptide plus 0P linker (peptide)
peptide: acyl-QNYQPLDELDK(0P linker)TL[Bpa]DQFMLQQG-NH2
modifications: reading uncertain; also: printed as QNY QPL DEL DK(0P)T L(BPA)D QFM LQQ G
Molecule B20 had an IC50 of 92.2 nM.

B21: Compound 49 (T): targeting peptide plus 0P linker (peptide)
peptide: QXYQPLDELDXTLYDQFMLQQG
modifications: N-term DCB (dichlorobenzoyl) cap; C-term NH2 cap; AcK at 2; 0P linker on K11
B21 had an IC50 of 28.4 nM.

B22: Compound 46 (T): targeting peptide plus 0P linker (peptide)
peptide: acyl-QK(Ac)YQ[Hyp]LDE[ThA]DK(0P linker)TL[Bpa]DQFMLQQG-NH2
modifications: reading uncertain
With B22, the IC50 worked out at 82.7 nM.

B23: Compound 48 (T): targeting peptide plus 0P linker (peptide)
peptide: acyl-QK(Ac)YQPLDEK(Ac)DK(0P linker)TL[Phe(4-NO2)]DQFMLQQG-NH2
modifications: reading uncertain; also: printed as Q(AcK)Y QPL DE(AcK) DK(0P)T L(NO2F)D QFM LQQ G
Regarding B23, the IC50 was 82.4 nM.

B24: Compound 30 (T): targeting peptide plus 0P linker (peptide)
peptide: QXYQPLDEXDXTLYDQFMLQQG
modifications: not fully specified; N-term acyl cap; C-term NH2 cap; AcK at 2; 0P linker on K9; AcK at 11
Regarding B24, the IC50 amounted to 279 nM.

B25: Compound 24 (T): targeting peptide plus 4P linker (peptide)
peptide: QXYQPLDELDXTLYDQFMLQQG
modifications: not fully specified; N-term acyl cap; C-term NH2 cap; AcK at 2; 4P linker on K11
As for B25, the IC50 was found to be 207 nM. The IC50 values of the last two molecules are within 1.5-fold of each other.

B26: Compound 36 (T): targeting peptide plus 0P linker (peptide)
peptide: QXYQPLDELDXTIYDQFMLQQG
modifications: not fully specified; N-term acyl cap; C-term NH2 cap; AcK at 2; 0P linker on K11
In turn, B26 returned an IC50 of 2410 nM.

B27: Compound 37 (T): targeting peptide plus 0P linker (peptide)
peptide: QXYQPLDEIDXTLYDQFMLQQG
modifications: not fully specified; N-term acyl cap; C-term NH2 cap; AcK at 2; 0P linker on K11
With B27, the IC50 was found to be 1270 nM.

B28: Compound 44 (T): targeting peptide plus 0P linker (peptide)
peptide: QXYQPLDELDXTLFDQFMLQQG
modifications: not fully specified; N-term acyl cap; C-term NH2 cap; AcK at 2; 0P linker on K11
The molecule B28 returned an IC50 of 36.9 nM.

B29: Compound 42 (T): targeting peptide plus 0P linker (peptide)
peptide: QXYQPLDELDXTXYDQFMLQQG
modifications: not fully specified; N-term acyl cap; C-term NH2 cap; AcK at 2; 0P linker on K11; HL at 13
As to B29, the half-inhibitory concentration (IC50) turned out to be 1340 nM.

B30: Compound 41 (T): targeting peptide plus 0P linker (peptide)
peptide: QXYQPLDELDXTXYDQFMLQQG
modifications: not fully specified; N-term acyl cap; C-term NH2 cap; AcK at 2; 0P linker on K11; Nva at 13
Consider B30, for which the IC50 is 1340 nM.

B31: Compound 39 (T): targeting peptide plus 0P linker (peptide)
peptide: QXYQPLDELDXTXYDQFMLQQG
modifications: not fully specified; N-term acyl cap; C-term NH2 cap; AcK at 2; 0P linker on K11; HF at 13
Turning to B31, the IC50 is 4890 nM.

B32: Compound 51 (T): targeting peptide plus 0P linker (peptide)
peptide: QXYQPLDELDXTLYDQFMLQQG
modifications: not fully specified; N-term PyC (pyridinyl carboxylate) cap; C-term NH2 cap; AcK at 2; 0P linker on K11
Regarding B32, the IC50 was determined as 14.3 nM. Compared with the last molecule, the IC50 is about 340-fold lower.

B33: Compound 35 (T): targeting peptide plus 0P linker (peptide)
peptide: QXYQXLDELDXTLYDQFMLQQG
modifications: not fully specified; N-term acyl cap; C-term NH2 cap; AcK at 2; HP at 5; 0P linker on K11
With B33, the IC50 was 121 nM.

For the origin of these results see patent publication US20080166364A1 (COVX TECHNOLOGY IRELAND, published 2008).
